Numbered stars: 1 amine (or outer) side, 2 acyl side, 3 side chain; on linkers, the order of the positions; unused ones are H or OH. Bridge positions count the residues as written; N and C are the ends. Side chains are listed from the residue outwards. Ends that are not written are not given here. * marks the point of attachment. C20 diacid = O=C(O)CCCCCCCCCCCCCCCCCCC(=O)*; γGlu = O=C(O)[C@H](CCC(=O)[*:2])N[*:1]
T1: human calcitonin receptor (human, UniProt P30988 25-474)
T1 construct: whole, on cells; Used as cell membranes; also called hCTR; hCT
T1 sequence (looked up): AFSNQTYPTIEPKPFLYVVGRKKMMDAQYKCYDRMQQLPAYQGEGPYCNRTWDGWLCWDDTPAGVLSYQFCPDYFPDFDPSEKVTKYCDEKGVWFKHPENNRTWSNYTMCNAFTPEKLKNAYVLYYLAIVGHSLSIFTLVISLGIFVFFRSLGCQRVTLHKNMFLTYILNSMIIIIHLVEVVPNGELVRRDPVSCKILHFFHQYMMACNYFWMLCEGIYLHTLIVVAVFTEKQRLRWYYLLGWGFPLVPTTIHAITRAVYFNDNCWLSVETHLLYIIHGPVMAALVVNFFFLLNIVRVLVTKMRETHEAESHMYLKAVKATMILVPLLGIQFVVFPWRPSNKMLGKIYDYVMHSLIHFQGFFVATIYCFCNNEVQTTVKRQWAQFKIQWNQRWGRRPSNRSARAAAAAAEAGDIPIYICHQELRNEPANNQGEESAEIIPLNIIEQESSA

B1: N^ε1-[(4S)-4-carboxy-4-(19-carboxynonadecanoylamino)butanoyl]-[Glu14,Arg17,Pro21,Pro27,Pro34,Glu35]-h-amylin (peptide)
peptide: K([γGlu-C20 diacid])CNTATCATQRLAEFLRHSSPNFGAIPSSTNVGPETY-NH2
modifications: disulfide 2-7; N-terminus assumed
SMILES: CC[C@H](C)[C@H](NC(=O)[C@H](C)NC(=O)CNC(=O)[C@H](Cc1ccccc1)NC(=O)[C@H](CC(N)=O)NC(=O)[C@@H]1CCCN1C(=O)[C@H](CO)NC(=O)[C@H](CO)NC(=O)[C@H](Cc1c[nH]cn1)NC(=O)[C@H](CCCNC(=N)N)NC(=O)[C@H](CC(C)C)NC(=O)[C@H](Cc1ccccc1)NC(=O)[C@H](CCC(=O)O)NC(=O)[C@H](C)NC(=O)[C@H](CC(C)C)NC(=O)[C@H](CCCNC(=N)N)NC(=O)[C@H](CCC(N)=O)NC(=O)[C@@H](NC(=O)[C@H](C)NC(=O)[C@@H]1CSSC[C@H](NC(=O)[C@@H](N)CCCCNC(=O)CC[C@H](NC(=O)CCCCCCCCCCCCCCCCCCC(=O)O)C(=O)O)C(=O)N[C@@H](CC(N)=O)C(=O)N[C@@H]([C@@H](C)O)C(=O)N[C@@H](C)C(=O)N[C@@H]([C@@H](C)O)C(=O)N1)[C@@H](C)O)C(=O)N1CCC[C@H]1C(=O)N[C@@H](CO)C(=O)N[C@@H](CO)C(=O)N[C@H](C(=O)N[C@@H](CC(N)=O)C(=O)N[C@H](C(=O)NCC(=O)N1CCC[C@H]1C(=O)N[C@@H](CCC(=O)O)C(=O)N[C@H](C(=O)N[C@@H](Cc1ccc(O)cc1)C(N)=O)[C@@H](C)O)C(C)C)[C@@H](C)O
B2: N^ε1-[(4S)-4-carboxy-4-(19-carboxynonadecanoylamino)butanoyl]-[His14,Arg17,Pro21,Pro27,His34]-h-amylin (peptide)
peptide: K([γGlu-C20 diacid])CNTATCATQRLAHFLRHSSPNFGAIPSSTNVGHNTY-NH2
modifications: disulfide 2-7; N-terminus assumed
SMILES: CC[C@H](C)[C@H](NC(=O)[C@H](C)NC(=O)CNC(=O)[C@H](Cc1ccccc1)NC(=O)[C@H](CC(N)=O)NC(=O)[C@@H]1CCCN1C(=O)[C@H](CO)NC(=O)[C@H](CO)NC(=O)[C@H](Cc1c[nH]cn1)NC(=O)[C@H](CCCNC(=N)N)NC(=O)[C@H](CC(C)C)NC(=O)[C@H](Cc1ccccc1)NC(=O)[C@H](Cc1c[nH]cn1)NC(=O)[C@H](C)NC(=O)[C@H](CC(C)C)NC(=O)[C@H](CCCNC(=N)N)NC(=O)[C@H](CCC(N)=O)NC(=O)[C@@H](NC(=O)[C@H](C)NC(=O)[C@@H]1CSSC[C@H](NC(=O)[C@@H](N)CCCCNC(=O)CC[C@H](NC(=O)CCCCCCCCCCCCCCCCCCC(=O)O)C(=O)O)C(=O)N[C@@H](CC(N)=O)C(=O)N[C@@H]([C@@H](C)O)C(=O)N[C@@H](C)C(=O)N[C@@H]([C@@H](C)O)C(=O)N1)[C@@H](C)O)C(=O)N1CCC[C@H]1C(=O)N[C@@H](CO)C(=O)N[C@@H](CO)C(=O)N[C@H](C(=O)N[C@@H](CC(N)=O)C(=O)N[C@H](C(=O)NCC(=O)N[C@@H](Cc1c[nH]cn1)C(=O)N[C@@H](CC(N)=O)C(=O)N[C@H](C(=O)N[C@@H](Cc1ccc(O)cc1)C(N)=O)[C@@H](C)O)C(C)C)[C@@H](C)O
notes: also called compound 81
B3: N^ε1-[(4S)-4-carboxy-4-(19-carboxynonadecanoylamino)butanoyl]-[His14,Arg17,Pro21,Pro27,His35]-h-amylin (peptide)
peptide: K([γGlu-C20 diacid])CNTATCATQRLAHFLRHSSPNFGAIPSSTNVGSHTY-NH2
modifications: disulfide 2-7; N-terminus assumed
SMILES: CC[C@H](C)[C@H](NC(=O)[C@H](C)NC(=O)CNC(=O)[C@H](Cc1ccccc1)NC(=O)[C@H](CC(N)=O)NC(=O)[C@@H]1CCCN1C(=O)[C@H](CO)NC(=O)[C@H](CO)NC(=O)[C@H](Cc1c[nH]cn1)NC(=O)[C@H](CCCNC(=N)N)NC(=O)[C@H](CC(C)C)NC(=O)[C@H](Cc1ccccc1)NC(=O)[C@H](Cc1c[nH]cn1)NC(=O)[C@H](C)NC(=O)[C@H](CC(C)C)NC(=O)[C@H](CCCNC(=N)N)NC(=O)[C@H](CCC(N)=O)NC(=O)[C@@H](NC(=O)[C@H](C)NC(=O)[C@@H]1CSSC[C@H](NC(=O)[C@@H](N)CCCCNC(=O)CC[C@H](NC(=O)CCCCCCCCCCCCCCCCCCC(=O)O)C(=O)O)C(=O)N[C@@H](CC(N)=O)C(=O)N[C@@H]([C@@H](C)O)C(=O)N[C@@H](C)C(=O)N[C@@H]([C@@H](C)O)C(=O)N1)[C@@H](C)O)C(=O)N1CCC[C@H]1C(=O)N[C@@H](CO)C(=O)N[C@@H](CO)C(=O)N[C@H](C(=O)N[C@@H](CC(N)=O)C(=O)N[C@H](C(=O)NCC(=O)N[C@@H](CO)C(=O)N[C@@H](Cc1c[nH]cn1)C(=O)N[C@H](C(=O)N[C@@H](Cc1ccc(O)cc1)C(N)=O)[C@@H](C)O)C(C)C)[C@@H](C)O
notes: also called compound 66
B4: N^ε1-[(4S)-4-carboxy-4-(19-carboxynonadecanoylamino)butanoyl]-[His14,Arg17,Pro21,Pro27]-h-amylin (peptide)
peptide: K([γGlu-C20 diacid])CNTATCATQRLAHFLRHSSPNFGAIPSSTNVGSNTY-NH2
modifications: disulfide 2-7; N-terminus assumed
SMILES: CC[C@H](C)[C@H](NC(=O)[C@H](C)NC(=O)CNC(=O)[C@H](Cc1ccccc1)NC(=O)[C@H](CC(N)=O)NC(=O)[C@@H]1CCCN1C(=O)[C@H](CO)NC(=O)[C@H](CO)NC(=O)[C@H](Cc1c[nH]cn1)NC(=O)[C@H](CCCNC(=N)N)NC(=O)[C@H](CC(C)C)NC(=O)[C@H](Cc1ccccc1)NC(=O)[C@H](Cc1c[nH]cn1)NC(=O)[C@H](C)NC(=O)[C@H](CC(C)C)NC(=O)[C@H](CCCNC(=N)N)NC(=O)[C@H](CCC(N)=O)NC(=O)[C@@H](NC(=O)[C@H](C)NC(=O)[C@@H]1CSSC[C@H](NC(=O)[C@@H](N)CCCCNC(=O)CC[C@H](NC(=O)CCCCCCCCCCCCCCCCCCC(=O)O)C(=O)O)C(=O)N[C@@H](CC(N)=O)C(=O)N[C@@H]([C@@H](C)O)C(=O)N[C@@H](C)C(=O)N[C@@H]([C@@H](C)O)C(=O)N1)[C@@H](C)O)C(=O)N1CCC[C@H]1C(=O)N[C@@H](CO)C(=O)N[C@@H](CO)C(=O)N[C@H](C(=O)N[C@@H](CC(N)=O)C(=O)N[C@H](C(=O)NCC(=O)N[C@@H](CO)C(=O)N[C@@H](CC(N)=O)C(=O)N[C@H](C(=O)N[C@@H](Cc1ccc(O)cc1)C(N)=O)[C@@H](C)O)C(C)C)[C@@H](C)O
notes: also called compound 70
B5: N^ε1-[(4S)-4-carboxy-4-[[(4S)-4-carboxy-4-(19-carboxynonadecanoylamino)butanoyl]amino]butanoyl]-[Glu14,Arg17,Pro21,Pro27,Arg34,Glu35]-h-amylin (peptide)
peptide: K([γGlu-γGlu-C20 diacid])CNTATCATQRLAEFLRHSSPNFGAIPSSTNVGRETY-NH2
modifications: disulfide 2-7; N-terminus assumed
SMILES: CC[C@H](C)[C@H](NC(=O)[C@H](C)NC(=O)CNC(=O)[C@H](Cc1ccccc1)NC(=O)[C@H](CC(N)=O)NC(=O)[C@@H]1CCCN1C(=O)[C@H](CO)NC(=O)[C@H](CO)NC(=O)[C@H](Cc1c[nH]cn1)NC(=O)[C@H](CCCNC(=N)N)NC(=O)[C@H](CC(C)C)NC(=O)[C@H](Cc1ccccc1)NC(=O)[C@H](CCC(=O)O)NC(=O)[C@H](C)NC(=O)[C@H](CC(C)C)NC(=O)[C@H](CCCNC(=N)N)NC(=O)[C@H](CCC(N)=O)NC(=O)[C@@H](NC(=O)[C@H](C)NC(=O)[C@@H]1CSSC[C@H](NC(=O)[C@@H](N)CCCCNC(=O)CC[C@H](NC(=O)CC[C@H](NC(=O)CCCCCCCCCCCCCCCCCCC(=O)O)C(=O)O)C(=O)O)C(=O)N[C@@H](CC(N)=O)C(=O)N[C@@H]([C@@H](C)O)C(=O)N[C@@H](C)C(=O)N[C@@H]([C@@H](C)O)C(=O)N1)[C@@H](C)O)C(=O)N1CCC[C@H]1C(=O)N[C@@H](CO)C(=O)N[C@@H](CO)C(=O)N[C@H](C(=O)N[C@@H](CC(N)=O)C(=O)N[C@H](C(=O)NCC(=O)N[C@@H](CCCNC(=N)N)C(=O)N[C@@H](CCC(=O)O)C(=O)N[C@H](C(=O)N[C@@H](Cc1ccc(O)cc1)C(N)=O)[C@@H](C)O)C(C)C)[C@@H](C)O
B6: N^ε1-[(4S)-4-carboxy-4-[[(4S)-4-carboxy-4-(19-carboxynonadecanoylamino)butanoyl]amino]butanoyl]-[Glu14,Arg17,Pro21,Pro27,Arg34]-h-amylin (peptide)
peptide: K([γGlu-γGlu-C20 diacid])CNTATCATQRLAEFLRHSSPNFGAIPSSTNVGRNTY-NH2
modifications: disulfide 2-7; N-terminus assumed
SMILES: CC[C@H](C)[C@H](NC(=O)[C@H](C)NC(=O)CNC(=O)[C@H](Cc1ccccc1)NC(=O)[C@H](CC(N)=O)NC(=O)[C@@H]1CCCN1C(=O)[C@H](CO)NC(=O)[C@H](CO)NC(=O)[C@H](Cc1c[nH]cn1)NC(=O)[C@H](CCCNC(=N)N)NC(=O)[C@H](CC(C)C)NC(=O)[C@H](Cc1ccccc1)NC(=O)[C@H](CCC(=O)O)NC(=O)[C@H](C)NC(=O)[C@H](CC(C)C)NC(=O)[C@H](CCCNC(=N)N)NC(=O)[C@H](CCC(N)=O)NC(=O)[C@@H](NC(=O)[C@H](C)NC(=O)[C@@H]1CSSC[C@H](NC(=O)[C@@H](N)CCCCNC(=O)CC[C@H](NC(=O)CC[C@H](NC(=O)CCCCCCCCCCCCCCCCCCC(=O)O)C(=O)O)C(=O)O)C(=O)N[C@@H](CC(N)=O)C(=O)N[C@@H]([C@@H](C)O)C(=O)N[C@@H](C)C(=O)N[C@@H]([C@@H](C)O)C(=O)N1)[C@@H](C)O)C(=O)N1CCC[C@H]1C(=O)N[C@@H](CO)C(=O)N[C@@H](CO)C(=O)N[C@H](C(=O)N[C@@H](CC(N)=O)C(=O)N[C@H](C(=O)NCC(=O)N[C@@H](CCCNC(=N)N)C(=O)N[C@@H](CC(N)=O)C(=O)N[C@H](C(=O)N[C@@H](Cc1ccc(O)cc1)C(N)=O)[C@@H](C)O)C(C)C)[C@@H](C)O
notes: also called compound 88

Molecular target: T1, human calcitonin receptor
Assay: ratio of hCTR IC50 to hAmylin-R IC50 (reference: human amylin receptor)
Procedure, shortened: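 Competition binding by SPA with cell membranes (35 ng/μL) and SPA beads in 50 mM Hepes pH 7.4 with 1 mM CaCl2, 5 mM MgCl2, 0.1% OA and 0.02% Tween20. Incubated 120 min at 25 °C with shaking, then counted.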

| Binder | Ratio hCT/hAmylin binding |
| --- | --- |
| B1 | 13.3 |
| B2 | 87.2 |
| B3 | 45.5 |
| B4 | 60.8 |
| B5 | 14.7 |
| B6 | 46.5 |

Molecular target: T1, human calcitonin receptor
Assay: SPA competition on BHK cell membranes, 125I-calcitonin as radioligand (Assay VII)
Procedure, shortened: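 BHK hCTR membranes 35 ng/μL + SPA beads 0.05 mg/well; buffer 50 mM Hepes pH 7.4, 1 mM CaCl2, 5 mM MgCl₂, 0.1% OA, 0.02% Tween20. 120 min, 25° C., shaking. Scintillation count; IC50 by one-site binding competition.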

| Binder | IC50 |
| --- | --- |
| B1 | 1.86 nM |
| B2 | 23.6 nM |
| B3 | 18 nM |
| B4 | 10.3 nM |
| B5 | 14.1 nM |
| B6 | 34.9 nM |
